Test results published in the Human Domainome abundance scans (Beltran et al. 2025).
± gives the uncertainty stated by the source.

B1: Zinc finger homeobox protein 3, residues 2244 to 2299; numbered along this chain, Q15911 (parent)
chain: SSRTRFTDYQLRVLQDFFDANAYPKDDEFEQLSNLLNLPTRVIVVWFQNARQKARK

Variants of: B1
Test: abundance fitness (aPCA) (normalised: wild type 0, dead -1); higher = more abundant; growth selection in yeast, the domain comes from the species named
Conditions: Homo sapiens

Abundance fitness of substitutions, site by site:
N37: P -0.831 ± 0.19; E -0.034 ± 0.1; I -0.289 ± 0.16; R -0.057 ± 0.075; F -0.236 ± 0.15; T -0.179 ± 0.13
F29: I 0.071 ± 0.13; V -0.102 ± 0.079; S -0.423 ± 0.082; M -0.271 ± 0.14; H -0.484 ± 0.24; R -0.324 ± 0.078
A20: Y -0.291 ± 0.23; S -0.065 ± 0.12; D -0.102 ± 0.16; E -0.115 ± 0.13; N 0.24 ± 0.23
V42: H 0.022 ± 0.19; W -0.146 ± 0.11; C -0.112 ± 0.13; G -0.056 ± 0.087
L11: V 0.015 ± 0.078; F -0.364 ± 0.14; M 0.204 ± 0.16; H -0.203 ± 0.19; C -0.743 ± 0.16
D8: L -0.332 ± 0.093; A -0.123 ± 0.082; K -0.027 ± 0.14
K25: P -0.228 ± 0.13; E -0.306 ± 0.11; F -0.338 ± 0.21; V -0.115 ± 0.086
F17: N -0.125 ± 0.16; Q -0.47 ± 0.14; V -0.124 ± 0.087; C -0.222 ± 0.15; L -0.381 ± 0.1; M -0.039 ± 0.14
L35: N -0.004 ± 0.19; S 0.007 ± 0.096; M 0.085 ± 0.13; A -0.078 ± 0.089; K 0.201 ± 0.14; P -0.918 ± 0.2; H -0.088 ± 0.14; R 0.085 ± 0.083; T 0.117 ± 0.13; E -0.107 ± 0.13; V 0.041 ± 0.083; D 0.115 ± 0.16
S2: H -0.043 ± 0.22; V 0.042 ± 0.1; G -0.006 ± 0.093; T 0.214 ± 0.12; E 0.182 ± 0.15; Q -0.093 ± 0.27; L 0.026 ± 0.12
T7: R -0.556 ± 0.086; F -0.725 ± 0.24; N -0.565 ± 0.21; I -0.586 ± 0.19; D -0.258 ± 0.14; S -0.186 ± 0.092; M -0.46 ± 0.13; K -0.272 ± 0.16; H -0.665 ± 0.19
T4: F 0.03 ± 0.17; Q -0.08 ± 0.16; S 0.024 ± 0.093; M 0.304 ± 0.13; I 0.032 ± 0.19; P -0.154 ± 0.12; G -0.394 ± 0.08; R -0.388 ± 0.082
E28: I -0.374 ± 0.2; M -0.347 ± 0.14; W -0.719 ± 0.11; H -0.435 ± 0.2; L -0.739 ± 0.11; Q -0.169 ± 0.13; R -0.481 ± 0.088
V45: A 0.004 ± 0.074; H 0.032 ± 0.092; P -0.21 ± 0.076; E 0.244 ± 0.1; Y -0.19 ± 0.11; K -0.061 ± 0.095; I -0.055 ± 0.098
A50: K -0.09 ± 0.12; S -0.084 ± 0.081; T -0.08 ± 0.086; Y -0.196 ± 0.1; W -0.496 ± 0.13; N 0.009 ± 0.097
N49: G 0.046 ± 0.081; F -0.581 ± 0.28; H -0.249 ± 0.21; K -0.024 ± 0.17; A -0.222 ± 0.11; S -0.056 ± 0.11; Y -0.497 ± 0.25
Q10: P -0.923 ± 0.18; N -0.76 ± 0.19; C -0.764 ± 0.17; L -0.919 ± 0.15; H -0.563 ± 0.16; K -0.924 ± 0.17
T40: S 0.025 ± 0.073; P -0.047 ± 0.089; I -0.175 ± 0.092; F -0.107 ± 0.087; C -0.012 ± 0.094; R -0.139 ± 0.078; D -0.356 ± 0.11; H -0.127 ± 0.097; Q -0.214 ± 0.11
L32: Y -0.19 ± 0.31; W -0.56 ± 0.1; F -0.546 ± 0.16; C -0.641 ± 0.14; D -0.637 ± 0.33; M 0.003 ± 0.11; E -0.957 ± 0.13
K53: V -0.085 ± 0.092; L -0.013 ± 0.07; W -0.083 ± 0.16; T -0.008 ± 0.078; R -0.116 ± 0.09; M 0.008 ± 0.12
S33: W -0.848 ± 0.13; Q -0.507 ± 0.17; T -0.316 ± 0.14; K -0.129 ± 0.18; N -0.728 ± 0.23; E -0.5 ± 0.15; M -0.638 ± 0.17; R -0.05 ± 0.077; Y -0.871 ± 0.23; C -0.498 ± 0.15
E30: S -0.135 ± 0.4
R3: D 0.505 ± 0.13; S 0.386 ± 0.11; F 0.387 ± 0.18; M 0.308 ± 0.13; I 0.108 ± 0.19; H 0.368 ± 0.17; A 0.388 ± 0.087
W46: M -0.81 ± 0.14; G -0.856 ± 0.1; E -0.749 ± 0.13; F -0.244 ± 0.19; S -0.526 ± 0.13
Q52: F -0.21 ± 0.08; T -0.036 ± 0.07; K -0.077 ± 0.12; A -0.008 ± 0.077; W -0.204 ± 0.12
Y9: K 0.162 ± 0.13; Q 0.211 ± 0.16; M -0.005 ± 0.12; H -0.129 ± 0.27
P39: D 0.196 ± 0.098; K -0.197 ± 0.17; F -0.715 ± 0.12; L -0.786 ± 0.091; Y -0.99 ± 0.12
